Biological target: biotinylated EpoR (Abbott CHO cell derived ref.#RB69084:4) (UniProt P19235)
Assay: immunofluorescence microscopy on EpoR-coated sheep red blood cells, MAB307 at 20 ug/ml

Chain of biotinylated EpoR (Abbott CHO cell derived ref.#RB69084:4) (P19235 25-250 limits assumed): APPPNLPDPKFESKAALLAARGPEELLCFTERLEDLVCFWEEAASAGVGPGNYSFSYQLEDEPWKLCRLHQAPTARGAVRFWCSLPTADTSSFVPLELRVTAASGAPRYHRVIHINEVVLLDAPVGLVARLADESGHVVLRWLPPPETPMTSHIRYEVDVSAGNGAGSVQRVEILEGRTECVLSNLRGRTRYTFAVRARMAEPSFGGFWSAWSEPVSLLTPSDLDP

**Q.** Which immunofluorescence score (arbitrary scale of 0-4) does the source give for “murine anti-EpoR antibody (R&D Systems Cat. #MAB307)” here?
**A.** 4 of 4

Reference: patent publication US20040175379A1
